This is an account of results in US20230270894A1 (Regeneron, published 2023).

The target in assay [1] is human LAG3 (lymphocyte activation gene-3 protein, CD223), expressed on cells (human) (UniProt P18627). The assay is described as follows: cell-based or functional assay.
The target in assay [2] is T1, human LAG3 (lymphocyte activation gene-3 protein, CD223), expressed on cells (human, UniProt P18627 23-525).
T1 sequence: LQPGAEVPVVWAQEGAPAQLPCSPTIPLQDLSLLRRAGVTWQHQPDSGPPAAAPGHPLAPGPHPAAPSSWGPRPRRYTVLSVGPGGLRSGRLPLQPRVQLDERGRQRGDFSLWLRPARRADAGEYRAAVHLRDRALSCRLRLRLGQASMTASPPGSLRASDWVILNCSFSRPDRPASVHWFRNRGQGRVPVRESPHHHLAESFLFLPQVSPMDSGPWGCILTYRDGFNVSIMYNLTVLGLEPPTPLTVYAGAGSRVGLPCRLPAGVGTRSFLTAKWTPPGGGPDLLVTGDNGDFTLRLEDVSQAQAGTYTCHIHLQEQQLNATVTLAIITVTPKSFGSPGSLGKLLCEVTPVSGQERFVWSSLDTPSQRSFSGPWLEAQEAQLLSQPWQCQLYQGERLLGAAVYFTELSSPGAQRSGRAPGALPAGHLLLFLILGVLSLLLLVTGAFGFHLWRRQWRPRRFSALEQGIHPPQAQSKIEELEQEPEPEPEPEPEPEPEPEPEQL
The assay is described as follows: cell-based or functional assay.

Molecule “89Zr-DFO-conjugated isotype control antibody” gave an ex vivo biodistribution, tumor uptake (AVERAGE % ID/G) in MC38/ova/LAG3 tumors of NCr nude mice, 6 days post-dosing in assay [1] of 7.8 % ID/g.

B1: 89Zr-DFO-mAb1 (anti-LAG3 antibody H4sH15482P conjugated with p-SCN-Bn-DFO and radiolabeled with 89Zr) (antibody, V domains shown)
VH: QVQLVESGGGVVQPGRSLRLSCVASGFTFSSYGMHWVRQAPGKGLEWVAIIWYDGSNKYYADSVKGRFTISRDNSKNTQYLQMNSLRAEDTAVYYCASVATSGDFDYYGMDVWGQGTTVTVSS
VL: EIVLTQSPATLSLSPGERTTLSCRASQRISTYLAWYQQKPGQAPRLLIYDASKRATGIPARFSGSGSGTGFTLTISSLEPEDFAVYYCQQRSNWPLTFGGGTKVEIK
Consider B1, for which, in assay [2], the “Tumor-to-blood ratio (average), Raji/hPBMC tumors, day 6, protein dose 0.03 mg/kg” value was found to be 9.71 ratio; the “Tumor-to-blood ratio (average), Raji/hPBMC tumors, day 6, protein dose 0.1 mg/kg” value was 5.44 ratio; the “Tumor-to-blood ratio (average), Raji/hPBMC tumors, day 6, protein dose 0.3 mg/kg” value worked out at 3.46 ratio; the “Tumor-to-blood ratio (average), Raji/hPBMC tumors, day 6, protein dose 5 mg/kg” value was 1.1 ratio.
